# Data taken from patent publication US5362864, “Trans-activating factor-1” (The Trustees of the Rockefeller University).
# B1: motif I WT tetramer (dsDNA)
# DNA 1: GTACGTGGCGGTACGTGGCGGTACGTGGCGGTACGTGGCG
# DNA 2: CGCCACGTACCGCCACGTACCGCCACGTACCGCCACGTAC
# B2: PA perfect palindrome (G-box) tetramer (dsDNA)
# DNA 1: GCCACGTGGCGCCACGTGGCGCCACGTGGCGCCACGTGGC
# DNA 2: B2 DNA 1
# B3: M1 tetramer (dsDNA)
# DNA 1: CAACGTGGCGCAACGTGGCGCAACGTGGCGCAACGTGGCG
# DNA 2: CGCCACGTTGCGCCACGTTGCGCCACGTTGCGCCACGTTG
# How the values were obtained:
# [1] = biological target: T1, truncated TAF-1 (p5a product from Met-22) (Nicotiana tabacum, UniProt Q99142 SEQ:1-244); test: competition; self competition; direct EMSA complexes in FIG. 2D; poly(dI-dC); details: tags: expressed from pSK(-) lacZ promoter in E. coli, ammonium sulfate fraction; chain copies: 2 (inferred); label: fill-in labelled
# T1 sequence: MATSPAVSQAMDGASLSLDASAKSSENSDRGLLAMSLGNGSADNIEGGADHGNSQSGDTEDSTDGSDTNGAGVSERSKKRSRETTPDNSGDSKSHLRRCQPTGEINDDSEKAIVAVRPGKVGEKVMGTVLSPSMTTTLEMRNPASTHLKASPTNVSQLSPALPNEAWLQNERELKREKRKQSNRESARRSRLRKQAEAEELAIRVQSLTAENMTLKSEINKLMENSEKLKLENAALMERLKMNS
# Excerpt: (§1) FIG. 4A. TAF-1 preferentially binds to a perfect palindromic sequence. Tetramers of WT motif I, the mutant M1, and the perfect palindrome (PA), […], (SEQ. ID NO: 9) were used as probes in gel mobility shift-assays with E. coli extracts containing the truncated TAF-1. F, free probe; NC, non-specific complex. The specific complexes, indicated with arrowheads, have a slower mobility as compared to the non-specific complex. FIG. 4B. Relative binding affinities of TAF-1 to motif I (WT) and related sequences. WT motif I tetramer was used as a probe in gel mobility shift assays with E. coli extracts containing the truncated TAF-1. Different concentrations of tetramers of mutants M1 to M5, as well as the tetramer of the perfect palindromic sequence (PA) were tested for their ability to compete with the WT sequence for TAF-1. For WT, PA, M1 and M5, the concentrations that gave approximately 50% competition were used in the experiments shown here. Higher concentrations were used for mutants M2, M3 and M4. Comp., Competitor. FIG. 4C. Nucleotide sequences of WT (SEQ. ID NO: 11), mutants M1 to M5 (SEQ. ID NOS: 10, 13, 14, 15 and 12), and the perfect palindrome, PA (SEQ. ID NO: 9). In this figure, the WT motif I of the tetramer is shown with the TACGTG hexanucleotide as the core sequence. The 5' nucleotide G of the motif is derived from the 3' nucleotide of the preceding motif in the tetramer. […]
# [2] = biological target: T1, truncated TAF-1 (p5a product from …); test: competition; 3 ng gave about 50% competition against WT probe; 200 ng needed for WT; direct EMSA also stronger than WT (FIG. 4A); details: tags: expressed from pSK(-) lacZ promoter in E. coli, ammonium sulfate fraction; chain copies: 2 (inferred)
# Excerpt: as §1
# [3] = biological target: T1, truncated TAF-1 (p5a product from …); test: competition; 60 ng gave about 50% competition; increased affinity also in direct EMSA; details: tags: expressed from pSK(-) lacZ promoter in E. coli, ammonium sulfate fraction; chain copies: 2 (inferred)
# Excerpt: as §1
binder,measurement,setting,value
B1,IC50,[1],~200 ng
B2,binding signal,[2],~66 fold vs WT
B3,binding signal,[3],3.3 fold vs WT
